According to IntAct's records for PubMed 21900546:

B1: Neutrophil cytosol factor 2 (Homo sapiens), P19878 (parent)
chain: MSLVEAISLWNEGVLAADKKDWKGALDAFSAVQDPHSRICFNIGCMYTILKNMTEAEKAFTRSINRDKHLAVAYFQRGMLYYQTEKYDLAIKDLKEALIQLRGNQLIDYKILGLQFKLFACEVLYNIAFMYAKKEEWKKAEEQLALATSMKSEPRHSKIDKAMECVWKQKLYEPVVIPVGKLFRPNERQVAQLAKKDYLGKATVVASVVDQDSFSGFAPLQPQAAEPPPRPKTPEIFRALEGEAHRVLFGFVPETKEELQVMPGNIVFVLKKGNDNWATVMFNGQKGLVPCNYLEPVELRIHPQQQPQEESSPQSDIPAPPSSKAPGRPQLSPGQKQKEEPKEVKLSVPMPYTLKVHYKYTVVMKTQPGLPYSQVRDMVSKKLELRLEHTKLSYRPRDSNELVPLSEDSMKDAWGQVKNYCLTLWCENTVGDQGFPDEPKESEKADANNQTTEPQLKKGSQVEALFSYEATQPEDLEFQEGDIILVLSKVNEEWLEGECKGKVGIFPKVFVEDCATTDLESTRREV

Variants of: B1
Conditions: with rac2_human RAC2, P15153

Variant	effect of a mutation on the interaction
MSLVEAISLWNEGVLAADKKDWKGALDAFSAVQDPHSQICFNIGCMYTILKNMTEAEKAFTRSINRDKHLAVAYFQRGMLYYQTEKYDLAIKDLKEALIQLRGNQLIDYKILGLQFKLFACEVLYNIAFMYAKKEEWKKAEEQLALATSMKSEPRHSKIDKAMECVWKQKLYEPVVIPVGKLFRPNERQVAQLAKKDYLGKATVVASVVDQDSFSGFAPLQPQAAEPPPRPKTPEIFRALEGEAHRVLFGFVPETKEELQVMPGNIVFVLKKGNDNWATVMFNGQKGLVPCNYLEPVELRIHPQQQPQEESSPQSDIPAPPSSKAPGRPQLSPGQKQKEEPKEVKLSVPMPYTLKVHYKYTVVMKTQPGLPYSQVRDMVSKKLELRLEHTKLSYRPRDSNELVPLSEDSMKDAWGQVKNYCLTLWCENTVGDQGFPDEPKESEKADANNQTTEPQLKKGSQVEALFSYEATQPEDLEFQEGDIILVLSKVNEEWLEGECKGKVGIFPKVFVEDCATTDLESTRREV [R38Q]	decreasing interaction strength
